Results from patent publication US20240101668A1 (WUGEN, published 2024).
Residue numbers refer to the chain shown, from its start.

B1: Polypeptide No. 150 (scFv, V domains shown)
VH: QVQLVQSGAEVKKPGASVKVSCKASGYIFTSQYIHWVRQAPGQGLEWMGWINPNSGGTNYAQKFQGRVTMTRDTSTSTVYMELSSLRSEDTAVYYCARDPWGAYGGDAFDIWGQGTMVTVSS
VL: DIQMTQSPSSLSASVGDRVTITCRASQGISNNLNWYQQKPGKAPKLLIYDASHLDTGVPSRFSGSGSGTDFTLTISSLQPEDFATYYCQQNYSPPPTFGQGTRLEIKR
notes: scFv
B2: Polypeptide No. 146 (scFv, V domains shown)
VH: QVQLVQSGAEVKKPGASVKVSCKASGYTFSGHYMHWVRQAPGQGLEWMGWIDPNSGGTNYAQKFQGRVTMTRDTSTSTVYMELSSLRSEDTAVYYCARDYPFYGDNDAFDIWGQGTTVTVSS
VL: DIQMTQSPSSLSASVGDRVTITCRVSQGISSYLNWYQQKPGKAPKLLIYEASSLESGVPSRFSGSGSGTDFTLTISSLQPEDFATYYCQQSYSIPFTFGPGTKVDIKR
notes: scFv
B3: Polypeptide No. 154 (scFv, V domains shown)
VH: QVQLVQSGAEVKKPGASVKVSCKASGGTFSSYGVTWVRQAPGQGLEWMGWINPNTGGTDYAQNFQGRVTMTRDTSTSTVYMELSSLRSEDTAVYYCAGEVGVGGYDAFDIWGQGTTVTVSS
VL: B2 VL with V25A, S31N, Y32W, N34A, E50A, E55Q, F96L, P100G, D105E
notes: scFv
B4: Polypeptide No. 147 (scFv, V domains shown)
VH: QVQLVQSGAEVKKPGASVKVSCKASGYTFTSYHIHWVRQAPGQGLEWVGGIIPSGGSTSYAQKFQGRVTMTRDTSTSTVYMELSSLRSEDTAVYYCARGTNDDHYDYWGQGTLVTVSS
VL: B1 VL with N32Y, N34A, H53N, D55E, N91S, P94T, P96L, Q100G, R103K, L104V
notes: scFv
B5: Polypeptide No. 148 (scFv, V domains shown)
VH: QVQLVQSGAEVKKPGASVKVSCKASGGTFTTYGISWVRQAPGQGLEWMGWMNPFSDNTDYAQNFQGRVTMTRDTSTSTVYMELSSLRSEDTAVYYCARGTGDDAFDIWGQGTMVTVSS
VL: DIQMTQSPSSLSASVGDRVTITCRASQSISTWVAWYQQKPGKAPKLLIYAASSLQSGVPSRFSGSGSGTDFTLTISSLQPEDFATYYCQQSFSIPLTFGQGTKVEIKR
notes: scFv
B6: Polypeptide No. 152 (scFv, V domains shown)
VH: QVQLVQSGAEVKKPGASVKVSCKASGGTFSTNAISWVRQAPGQGLEWMGWMNPNSGNTGYAQKFQGRVTMTRDTSTSTVYMELSSLRSEDTAVYYCAKEDYGGNFDYWGQGTLVTVSS
VL: B5 VL with S30G, T31P, V33L, A50D, S53N, S56A, F92H, I94L, Q100P, E105D
notes: scFv
B7: Polypeptide No. 153 (scFv, V domains shown)
VH: QVQLVQSGAEVKKPGASVKVSCKASGGAFSSYALSWVRQAPGQGLEWMGWMNPNSGNTGYAQKFQGRVTMTRDTSTSTVYMELSSLRSEDTAVYYCAADWMIGGDAFDIWGQGTTVTVSS
VL: B5 VL with T31S, V33L, A50D, S53R, F92Y, S93G, Q100G
notes: scFv
B8: Polypeptide No. 151 (scFv, V domains shown)
VH: QVQLVQSGAEVKKPGASVKVSCKASGYTFTDYYIHWVRQAPGQGLEWMGWMNPNSGNTGYAQKFQGRVTMTRDTSTSTVYMELSSLRSEDTAVYYCARVDTADYMDVWGKGTLVTVSS
VL: B5 VL with S28G, T31S, V33L, A50D, S53N, S56T, F92Y, I94T
notes: scFv
B9: Polypeptide No. 149 (scFv, V domains shown)
VH: QVQLVQSGAEVKKPGASVKVSCKASGYTFTSYDINWVRQAPGQGLEWMGWMNPNSGNTGYAQKFQGRVTMTRDTSTSTVYMELSSLRSEDTAVYYCARELEGEWFDPWGQGTLVTVSS
VL: B5 VL with T31S, W32Y, V33L, A34N, A50S, S53N, S91A, F92I, I94F
notes: scFv

These binders were tested against T1, huCLL1-K244-Avi-Tev-His (human, UniProt Q5QGZ9 65-265) (assay: BLI).
T1 construct: extracellular domain
T1 sequence (looked up): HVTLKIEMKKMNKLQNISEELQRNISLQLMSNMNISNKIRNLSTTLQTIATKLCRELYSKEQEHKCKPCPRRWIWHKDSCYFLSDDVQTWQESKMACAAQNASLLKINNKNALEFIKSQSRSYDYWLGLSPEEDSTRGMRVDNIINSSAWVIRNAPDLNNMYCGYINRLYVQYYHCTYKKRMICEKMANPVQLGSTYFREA
B1: binds. B2: binds. B3: binds. B4: binds. B5: binds. B6: binds. B7: binds. B8: binds. B9: binds.

These binders were tested against T2, huCLL1-Q244-Avi-Tev-His (human, UniProt Q5QGZ9 65-265) (assay: BLI).
T2 construct: extracellular domain; also called CLL-1 K244Q
T2 sequence (looked up): T1 sequence (looked up) with K180Q
B1: binds. B2: binds. B3: binds. B4: binds. B5: binds. B6: binds. B7: binds. B8: binds. B9: binds.
